Measured values published in patent US20180030151A1 (MOGAM INSTITUTE FOR BIOMEDICAL RESEARCH, published 2018).

Assays:
[1] = molecular target: T1, recombinant human TFPI (tissue factor pathway inhibitor) (human, UniProt P10646 29-304); test: SPR, Biacore T-200; IgG captured on protein A (CM5), TFPI as analyte
T1 construct: Biotin-conjugated in the yeast FACS; also called hTFPI; TFPI antigen
Protocol: Dissociation of the TFPI associated with the antibody was induced by running 10 mM glycine-HCl (pH 1.5) at a flow rate for 30 seconds. The affinities in terms of kinetic rate constants (Kₒₙ and Koff) and equilibrium dissociation constant (KD) were evaluated using Biacore T-200 evaluation software, and the results are shown in Table 24 below.

[2] = molecular target: T1, recombinant human TFPI (tissue factor …); test: cell-based or functional assay
[3] = molecular target: T1, recombinant human TFPI (tissue factor …); test: cell-based or functional assay; remark: listed apart in the source
[4] = molecular target: T1, recombinant human TFPI (tissue factor …); test: cell-based or functional assay; remark: listed apart in the source
[5] = molecular target: T1, recombinant human TFPI (tissue factor …); test: cell-based or functional assay; remark: listed apart in the source

B1: clone 1202 (antibody, V domains shown)
VH: EVQLVESGGGLVKPGGSLRLSCAASGFTFSSYAMNWVRQAPGKGLEWVGTITTGGSYTYYADSVDGRFTISRDNAKNSLYLKMNSLRAEDTAVYYCARQDGNFLMDYWGQGTLVTVSS
VL: DVVMTQTPLSLPVTLGQPASISCKSSQSLLDIDGKTYLNWLQQRPGQSPKRLIYLVSKLDSGVPDRFTGSGSGTDFTLKISRVEAEDVGVYYCWQGTHFPFTFGQGTKVEIKR
notes: scFv on yeast at selection; human IgG4/kappa IgG as purified; also called No. 1202 antibody
[1]
  Kd: 9.47 pM
[2]
  effect of inhibiting TFPI, FXa activity assay, Ab 10 nM: ~82%
  effect of inhibiting TFPI, FXa activity assay, Ab 20 nM: ~87%
[3]
  % of Normalized, TF/FVIIa/FX complex assay, Ab 1.56 nM: 5.1%
  % of Normalized, TF/FVIIa/FX complex assay, Ab 3.13 nM: 6%
  % of Normalized, TF/FVIIa/FX complex assay, Ab 6.25 nM: 6.9%
  % of Normalized, TF/FVIIa/FX complex assay, Ab 12.5 nM: 10.7%
  % of Normalized, TF/FVIIa/FX complex assay, Ab 25 nM: 60%
  % of Normalized, TF/FVIIa/FX complex assay, Ab 50 nM: 99.4%
  % of Normalized, TF/FVIIa/FX complex assay, Ab 100 nM: 101%
[4]
  A405, TF/FVIIa/FX complex assay, Ab 1.56 nM: 0.043
  A405, TF/FVIIa/FX complex assay, Ab 3.13 nM: 0.051
  A405, TF/FVIIa/FX complex assay, Ab 6.25 nM: 0.059
  A405, TF/FVIIa/FX complex assay, Ab 12.5 nM: 0.091
  A405, TF/FVIIa/FX complex assay, Ab 25 nM: 0.509
  A405, TF/FVIIa/FX complex assay, Ab 50 nM: 0.843
  A405, TF/FVIIa/FX complex assay, Ab 100 nM: 0.859
[5]
  FXa assay % of FXa alone, 2.5 nM Ab, 10 nM TFPI: 7.3%
  FXa assay % of FXa alone, 5 nM Ab, 10 nM TFPI: 46.2%
  FXa assay OD, 2.5 nM Ab, 10 nM TFPI: 0.0605
  FXa assay OD, 5 nM Ab, 10 nM TFPI: 0.382
  FXa assay OD, 10 nM Ab, 10 nM TFPI: 0.676
  FXa assay OD, 20 nM Ab, 10 nM TFPI: 0.72
